From patent US8008547B2, “Glyphosate-N-acetyltransferase (GAT) genes” (E.I. duPont de Nemours, priority 2000, dated 2011)
Changes are numbered by the printed parent chain.

B1: SEQ ID NO: 322: GAT polypeptide (protein)
chain: MIEVKPINAEDTYEIRHRILRPNQPLEACKYETDLLRGAFHLGGYYRGKLISIASFNQAEHPELEGQKQYQLRGMATLEEYREQKAGSTLIRHAEALLRKKGADLLWCNARTSASGYYKKLGFSEQGEVYDTPPVGPHILMYKKLT
modifications: 14_7G1
notes: GAT polypeptide
B2: SEQ ID NO: 326: GAT polypeptide (protein)
chain: B1 chain with K30M, R37G, A39T, I51V, N57H, A96E, T132I
modifications: 15_10D6
notes: GAT polypeptide
B3: SEQ ID NO: 330: GAT polypeptide (protein)
chain: B1 chain with K30M, I51V, N57H, E80G, A96E
modifications: 15_12D6
notes: GAT polypeptide
B4: SEQ ID NO: 335: GAT polypeptide (protein)
chain: B1 chain with E14K, K30M, R37G, A39T, I51V, E80G, T132I, V135T
modifications: 15_4F11
notes: GAT polypeptide
B5: SEQ ID NO: 266: GAT polypeptide (protein)
chain: B1 chain with I51V, N57H, E80G, A96E, V135T
modifications: 14_2C1
notes: GAT polypeptide
B6: SEQ ID NO: 334: GAT polypeptide (protein)
chain: B1 chain with R37G, A39T, I51V, N57H, A96E, T132I
modifications: 15_3G11
notes: GAT polypeptide
B7: SEQ ID NO: 339: GAT polypeptide (protein)
chain: B1 chain with R37G, A39T, N57H, A96E, K100R, T132I
modifications: 15_9F6
notes: GAT polypeptide
B8: SEQ ID NO: 337: GAT polypeptide (protein)
chain: B1 chain with R37G, A39T, N57H, A96E, T132I, V135T
modifications: 15_6D3
notes: GAT polypeptide
B9: SEQ ID NO: 331: GAT polypeptide (protein)
chain: B1 chain with R37G, A39T, I51V, N57H, E80G, A96E, E128K, T132I
modifications: 15_12D8
notes: GAT polypeptide
B10: SEQ ID NO: 338: GAT polypeptide (protein)
chain: B1 chain with I51V, N57H, A96E, E128K, T132I
modifications: 15_6G11
notes: GAT polypeptide
B11: SEQ ID NO: 325: GAT polypeptide (protein)
chain: B1 chain with I51V, N57H, E80G, A96E, S113T, Y130F, T132I, V135T
modifications: 15_10C2
notes: GAT polypeptide
B12: SEQ ID NO: 329: GAT polypeptide (protein)
chain: B1 chain with R37G, A39T, N57H, E80G, T132I, V135T
modifications: 15_12A8
notes: GAT polypeptide
B13: SEQ ID NO: 327: GAT polypeptide (protein)
chain: B1 chain with I51V, E80G, A96E, K100R, T132I, V135T
modifications: 15_11F9
notes: GAT polypeptide
B14: SEQ ID NO: 336: GAT polypeptide (protein)
chain: B1 chain with R37G, A39T, I51V, N57H, A96E, T132I, V135T
modifications: 15_4H3
notes: GAT polypeptide
B15: SEQ ID NO: 328: GAT polypeptide (protein)
chain: B1 chain with N57H, E80G, T132I, V135T
modifications: 15_11H3
notes: GAT polypeptide
B16: SEQ ID NO: 333: GAT polypeptide (protein)
chain: B1 chain with A54V, N57H, E80G, A96E, V135A, K143T
modifications: 15_3F10
notes: GAT polypeptide
B17: SEQ ID NO: 265: GAT polypeptide (protein)
chain: B1 chain with R37G, G38S, A39T, E80G, A96E
modifications: 14_2A5
notes: GAT polypeptide
B18: SEQ ID NO: 263: GAT polypeptide (protein)
chain: B1 chain with A39T, N57H, E80G, A96E, T132I
modifications: 13_10F6
notes: GAT polypeptide
B19: SEQ ID NO: 349: GAT polypeptide (protein)
chain: B1 chain with R37G, R47Q, N57H, P62S, E80G, A96E, A114V, T132I, V135I
modifications: 21E11
notes: GAT polypeptide
B20: SEQ ID NO: 264: GAT polypeptide (protein)
chain: B1 chain with I51V, N57H, K68R, E80G, A96E, T132I, V135T
modifications: 13_12G6
notes: GAT polypeptide
B21: SEQ ID NO: 324: GAT polypeptide (protein)
chain: B1 chain with R37G, A39T, I51V, N57H, T132I, V135T
modifications: 14_8F7
notes: GAT polypeptide
B22: SEQ ID NO: 332: GAT polypeptide (protein)
chain: B1 chain with A39T, I51V, N57H, A96E, T132I
modifications: 15_12D9
notes: GAT polypeptide
B23: SEQ ID NO: 323: GAT polypeptide (protein)
chain: B1 chain with R37G, A39T, I51V, N57H, E80G, A96E, T132I
modifications: 14_7H9
notes: GAT polypeptide
B24: SEQ ID NO: 355: GAT polypeptide (protein)
chain: MIEVKPINAEDTYEIRHRILRPNQPLEACKYETDLLGGTFHLGGYYQGKLISTASFHQAGHSELEGQKQYQLRGMATLEGYRERKAGSTLIRHAEELLRKKGADLLWCNARISASGYYKKLGFSEQGGVYDIPPIGPHILMYKKLT
modifications: 2H3
notes: GAT polypeptide
B25: SEQ ID NO: 340: GAT polypeptide (protein)
chain: MIEVKPINAEDTYEIRHRILRPNQPLEACKYETDLLGGTFHLGGYYRGKLISIASFHKAEHSELEGEEQYQLRGMATLEGYREQKAGSTLIRYAEELLRKKGADLLWCNARTSVSGYYKKLGFSEQGEVYDIPPIGPHILMYKKLT
modifications: 15F5
notes: GAT polypeptide
B26: SEQ ID NO: 341: GAT polypeptide (protein)
chain: B25 chain with K30M, F40L, R47Q, E63G, Y93H, K119E
modifications: 16A1
notes: GAT polypeptide
B27: SEQ ID NO: 346: GAT polypeptide (protein)
chain: B25 chain with R18C, K30M, R47Q, E67Q, E68K, Y93H
modifications: 19D5
notes: GAT polypeptide
B28: SEQ ID NO: 353: GAT polypeptide (protein)
chain: B25 chain with K58N, E67Q, E68K, Y93H, V114A, K119E, T146A
modifications: 24E7
notes: GAT polypeptide
B29: SEQ ID NO: 354: GAT polypeptide (protein)
chain: B25 chain with K30M, G48D, K49R, K58Q, E67Q, E68K, Y93H, V114A, K119E
modifications: 2_8C3
notes: GAT polypeptide
B30: SEQ ID NO: 342: GAT polypeptide (protein)
chain: B25 chain with E3D, R47Q, K58Q, E67Q, E68K, Y93H, K119E
modifications: 16H3
notes: GAT polypeptide
B31: SEQ ID NO: 351: GAT polypeptide (protein)
chain: B25 chain with G48D, K49R, K58Q, E67Q, E68K, Y93H
modifications: 24C1
notes: GAT polypeptide
B32: SEQ ID NO: 350: GAT polypeptide (protein)
chain: B25 chain with K30M, R47Q, E67Q, E68K, Y93H, V114A, K119E, T146A
modifications: 23H11
notes: GAT polypeptide
B33: SEQ ID NO: 347: GAT polypeptide (protein)
chain: B24 chain with K30M, T53I, Q58N, G60E, R84Q, A103V, I112T, A114V, V129I, T146A
modifications: 20A12
notes: GAT polypeptide
B34: SEQ ID NO: 356: GAT polypeptide (protein)
chain: B25 chain with K30M, Y31F, T39A, R47Q, K58Q, E67Q, E68K, Y93H
modifications: 30G8
notes: GAT polypeptide
B35: SEQ ID NO: 348: GAT polypeptide (protein)
chain: B25 chain with K30M, K58Q, E67Q, E68K, Y93H, K119E
modifications: 20F2
notes: GAT polypeptide
B36: SEQ ID NO: 344: GAT polypeptide (protein)
chain: B25 chain with E67Q, E68K, Y93H, V114A, K119E, T146A
modifications: 18D6
notes: GAT polypeptide
B37: SEQ ID NO: 345: GAT polypeptide (protein)
chain: B25 chain with S52C, K58Q, E67Q, E68K, Y93H, S115R, K119E, E128G, T146A
modifications: 19C6
notes: GAT polypeptide
B38: SEQ ID NO: 343: GAT polypeptide (protein)
chain: B25 chain with N8S, K30M, T39A, R47Q, K58Q, E67Q, E68K, Y93H, K119E
modifications: 17C12
notes: GAT polypeptide
B39: SEQ ID NO: 352: GAT polypeptide (protein)
chain: B24 chain with K30M, Q47R, T53I, G60E, R84Q, A114V, T146A
modifications: 24C6
notes: GAT polypeptide

test: Standard protocol for determination of kcat and KM (continuous spectrophotometric assay, Acetyl CoA hydrolysis at 235 nm); assay type: biochemical; details: purified protein; about 23° C.; 20 mM HEPES pH 6.8, 10% ethylene glycol, 0.2 mM acetyl CoA
In short: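 KM from initial rates over 0.125–10 mM glyphosate, fitted by Lineweaver-Burke transformation of Michaelis-Menten; kcat/KM computed as kcat divided by KM. Continuous spectrophotometric read of acetyl-CoA hydrolysis at 235 nm.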

| Molecule | Kcat |
| --- | --- |
| B1 | 136.7 min⁻¹ |
| B2 | 67.1 min⁻¹ |
| B3 | 148.6 min⁻¹ |
| B4 | 80.3 min⁻¹ |
| B5 | 133.4 min⁻¹ |
| B6 | 71.5 min⁻¹ |
| B7 | 59.6 min⁻¹ |
| B8 | 85.9 min⁻¹ |
| B9 | 59.7 min⁻¹ |
| B10 | 36.9 min⁻¹ |
| B11 | 69.9 min⁻¹ |
| B12 | 77.1 min⁻¹ |
| B13 | 76.4 min⁻¹ |
| B14 | 93.3 min⁻¹ |
| B15 | 61.9 min⁻¹ |
| B16 | 48.7 min⁻¹ |
| B17 | 280.8 min⁻¹ |
| B18 | 48.6 min⁻¹ |
| B19 | 1.1 min⁻¹ |
| B20 | 52.1 min⁻¹ |

| Molecule | Kcat |
| --- | --- |
| B21 | 90.5 min⁻¹ |
| B22 | 59.7 min⁻¹ |
| B23 | 64.4 min⁻¹ |
| B24 | 16.1 min⁻¹ |
| B25 | 0.5 min⁻¹ |
| B26 | 10.4 min⁻¹ |
| B27 | 2.2 min⁻¹ |
| B28 | 8.9 min⁻¹ |
| B29 | 24.8 min⁻¹ |
| B30 | 3.5 min⁻¹ |
| B31 | 1.7 min⁻¹ |
| B32 | 7.1 min⁻¹ |
| B33 | 2.8 min⁻¹ |
| B34 | 10.2 min⁻¹ |
| B35 | 3.9 min⁻¹ |
| B36 | 9.6 min⁻¹ |
| B37 | 2.2 min⁻¹ |
| B38 | 3.2 min⁻¹ |
| B39 | 2.7 min⁻¹ |

same assay, conditions: purified protein; about 23° C.; pH 6.8; 0.2 mM acetyl CoA; glyphosate 0.125 to 10 mM

| Molecule | Km |
| --- | --- |
| B1 | 0.66 mM |
| B2 | 1 mM |
| B3 | 0.74 mM |
| B4 | 0.9 mM |
| B5 | 3.1 mM |
| B6 | 1.2 mM |
| B7 | 1.1 mM |
| B8 | 1.4 mM |
| B9 | 1.3 mM |
| B10 | 0.9 mM |
| B11 | 0.8 mM |
| B12 | 1.6 mM |
| B13 | 1 mM |
| B14 | 1 mM |
| B15 | 1 mM |
| B16 | 0.9 mM |
| B17 | 1.6 mM |
| B18 | 1.3 mM |
| B19 | 0.7 mM |
| B20 | 1.2 mM |

| Molecule | Km |
| --- | --- |
| B21 | 1.8 mM |
| B22 | 1.4 mM |
| B23 | 1.3 mM |
| B24 | 0.9 mM |
| B25 | 2.9 mM |
| B26 | 2.9 mM |
| B27 | 1.7 mM |
| B28 | 0.9 mM |
| B29 | 1.5 mM |
| B30 | 2.9 mM |
| B31 | 0.9 mM |
| B32 | 2.2 mM |
| B33 | 1.1 mM |
| B34 | 1.6 mM |
| B35 | 1.9 mM |
| B36 | 1.2 mM |
| B37 | 1.1 mM |
| B38 | 1.4 mM |
| B39 | 1.3 mM |
